Data on one substance can be found in patent publication US7109170B2, “Region of factor IXa protease domain that interacts with factor VIIIa and methods therefor” (Saint Louis University, priority 1999, dated 2006).

The target of the assay is factor X (Homo sapiens, UniProt P00742). Kind of assay: factor X activation by IXa proteins, Ca2+ and VIIIa, no phospholipid. It is filed as biochemical. On the set-up: Normal human plasma factor IX (IXNP) and factor X were isolated as described in Bajaj and Birktoft; from tissue; host or cells: human plasma (factor X); factor VIII obtained from Dr. Leon Hoyer, American Red Cross. The settings on record: 14 nM VIIIa, 400 nM factor X. As for the experimental part: The ability of each activated mutant to activate factor X in the presence and absence of phospholipid and factor VIIIa was determined as follows. The activation was carried out at 37° C. in a 50 μl reaction volume, in TBS/BSA pH 7.4, for various time periods. At the end of the incubation time period, each reaction mixture received 1 μl of 0.5 M EDTA to stop further generation of factor Xa. A 40 μL aliquot was then added to 0.1 ml quartz cuvette containing S-2222 in 75 μL of TBS/BSA, pH 7.4. The final concentration of S-2222 was 100 μM. The p-nitroaniline release was measured continuously (ΔA405/min) for up to 20 min (Sabharwal et al., 1995 supra; Sabharwal et al., 1997, supra). Factor Xa generated was calculated from a standard curve constructed using factor Xa prepared from insolubilized Russell's viper venom.
factor X, sequence (P00742 183-488 limits assumed): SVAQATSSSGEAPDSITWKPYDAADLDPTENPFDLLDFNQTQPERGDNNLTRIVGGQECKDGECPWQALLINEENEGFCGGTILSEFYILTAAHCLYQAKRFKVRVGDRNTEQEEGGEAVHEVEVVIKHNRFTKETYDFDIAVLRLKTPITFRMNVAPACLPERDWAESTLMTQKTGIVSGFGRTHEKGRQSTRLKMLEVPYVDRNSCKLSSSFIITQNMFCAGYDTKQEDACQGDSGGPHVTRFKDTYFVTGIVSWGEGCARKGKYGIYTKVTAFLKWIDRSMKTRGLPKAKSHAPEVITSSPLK
factor X, sequence (P00742 41-179 limits assumed): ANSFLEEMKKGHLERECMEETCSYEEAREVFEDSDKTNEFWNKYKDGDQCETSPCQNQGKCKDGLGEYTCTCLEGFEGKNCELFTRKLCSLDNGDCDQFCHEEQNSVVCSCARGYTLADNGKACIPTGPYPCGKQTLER
factor X, sequence (P00451 20-759 partner limits assumed): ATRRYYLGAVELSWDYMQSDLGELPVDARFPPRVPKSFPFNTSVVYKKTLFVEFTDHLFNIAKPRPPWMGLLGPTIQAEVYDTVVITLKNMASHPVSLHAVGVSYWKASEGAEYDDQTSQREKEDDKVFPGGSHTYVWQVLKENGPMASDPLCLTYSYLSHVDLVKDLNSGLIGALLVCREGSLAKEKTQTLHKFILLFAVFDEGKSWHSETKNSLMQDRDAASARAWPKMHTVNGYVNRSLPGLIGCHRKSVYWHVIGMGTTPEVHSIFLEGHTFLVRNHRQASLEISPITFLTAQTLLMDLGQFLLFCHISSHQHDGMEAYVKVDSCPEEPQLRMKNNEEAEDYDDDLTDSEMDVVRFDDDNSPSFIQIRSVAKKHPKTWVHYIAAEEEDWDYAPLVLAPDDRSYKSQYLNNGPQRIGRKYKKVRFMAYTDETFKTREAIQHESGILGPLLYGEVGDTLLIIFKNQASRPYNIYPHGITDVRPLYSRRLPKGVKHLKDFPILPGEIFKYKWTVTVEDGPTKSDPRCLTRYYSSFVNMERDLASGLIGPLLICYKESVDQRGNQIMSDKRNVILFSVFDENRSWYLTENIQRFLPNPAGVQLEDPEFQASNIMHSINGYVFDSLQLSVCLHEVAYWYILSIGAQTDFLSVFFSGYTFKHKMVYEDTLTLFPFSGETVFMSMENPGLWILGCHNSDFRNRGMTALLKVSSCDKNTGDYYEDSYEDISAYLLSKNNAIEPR
factor X, sequence (P00451 1668-2351 partner limits assumed): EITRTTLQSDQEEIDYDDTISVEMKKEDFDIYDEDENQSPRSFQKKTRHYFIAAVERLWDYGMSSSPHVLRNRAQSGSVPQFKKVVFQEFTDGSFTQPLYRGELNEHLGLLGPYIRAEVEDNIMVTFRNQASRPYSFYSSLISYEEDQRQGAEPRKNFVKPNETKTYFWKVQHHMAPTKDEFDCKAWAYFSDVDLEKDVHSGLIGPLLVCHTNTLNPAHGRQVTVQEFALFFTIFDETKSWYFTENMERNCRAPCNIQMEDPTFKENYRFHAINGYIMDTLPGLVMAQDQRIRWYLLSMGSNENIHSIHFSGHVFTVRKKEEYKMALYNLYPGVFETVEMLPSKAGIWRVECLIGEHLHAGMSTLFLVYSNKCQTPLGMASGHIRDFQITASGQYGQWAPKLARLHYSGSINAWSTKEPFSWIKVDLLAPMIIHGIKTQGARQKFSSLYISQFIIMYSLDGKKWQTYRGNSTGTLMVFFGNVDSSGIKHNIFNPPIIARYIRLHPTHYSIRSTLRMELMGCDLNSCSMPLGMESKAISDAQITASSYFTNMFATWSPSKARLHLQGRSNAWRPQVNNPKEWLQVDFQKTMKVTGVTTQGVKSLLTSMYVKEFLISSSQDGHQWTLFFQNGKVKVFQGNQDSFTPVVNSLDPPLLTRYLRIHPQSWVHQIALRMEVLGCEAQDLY
Factor X activation measurements were made under four experimental regimes. In one, Ca^2+ and phospholipid were present. In this system activation was carried out for 5–15 minutes and the concentration of each IXa protein was 20 nM, phospholipid was 25 μM, and factor X was 100 nM. In the second regime, Ca^2+, phospholipid and factor VIIIa were present. […] In the third regime, only Ca^2+ was present. Here, activation was carried out for 2–20 min and concentration of each IXa protein was 400 nM and factor X was 1 μM. Finally, in the fourth regime, Ca^2+ and VIIIa were present. Here, activation was carried out for 15–120 sec and the concentration of each IXa protein was 2 μM, VIIIa was 14 nM, and factor X was 400 nM.
In all of the above factor X activation experiments, the incubation times chosen were those in which the factor Xa generated was always less than 10 nM. This precautionary measure was taken to prevent activation of factor X by the generated factor Xa (see, e.g., Link. and Castellino, 1982, Arch Biochem. Biophys. 215, 215–221). Further, in those incubation mixtures which contained […], control experiments were also performed in which factor VIIIa was omitted. […] In the presence of factor VIIIa, 10 μM phospholipid was used based upon previous observations (Mathur et al., 1997, supra; van Dieijen et al., 1981, J. Biol. Chem. 256, 3433–3442). The concentrations of factor X selected for each set of reaction conditions are those which are below or at the Km values (van Dieijen et al., supra; Fay and Koshibu, 1998, J Biol. Chem. 273, 19049–19054). In this region of the Michaelis-Menton curve, the rate of formation of factor Xa is proportional to the substrate factor X and therefore to the affinity of the factor IXa enzyme for factor X.

Regarding “IXaV331A: activated factor IX mutant V331A”, the “X-activation rate, PL-minus system” value was 0.54 ± 0.02 nM/min.
